These sequences were tested on Escherichia coli TOP10 (assay: shrunken log2 fold change of peptide-encoding DNA abundance (4.5 h post-induction vs induction); higher = less antimicrobial activity (less host growth inhibition)). Conditions: time post-induction: 4.5 h; library: site-saturation at positions 5, 18, 19, 20.
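Further: peptides expressed intracellularly from a pBAD plasmid library in pooled LB shake-flask culture, induced with 0.3% L-arabinose, DNA abundance read by NGS, three biological replicates, DESeq2 with apeglm shrinkage.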

Row | Sequence | shrunken log2 fold change
1 | RRIRHRPPRLPRPRPRPTNHPRP | -0.457
2 | RRIRHRPPRLPRPRPRPTQHPRP | -0.0131
3 | RRIRHRPPRLPRPRPRPTRHPRP | 0.36
4 | RRIRHRPPRLPRPRPRPTRLPRP | 0.189
5 | RRIRHRPPRLPRPRPRPTRMPRP | 0.237
6 | RRIRHRPPRLPRPRPRPTRRPRP | 0.271
7 | RRIRHRPPRLPRPRPRPTSQPRP | -0.00232
8 | RRIRHRPPRLPRPRPRPTTRPRP | 0.383
9 | RRIRHRPPRLPRPRPRPTTTPRP | -0.0186
10 | RRIRHRPPRLPRPRPRPTVLPRP | -0.109
11 | RRIRHRPPRLPRPRPRPTVNPRP | -0.144
12 | RRIRHRPPRLPRPRPRPTVYPRP | -0.219
13 | RRIRHRPPRLPRPRPRPTWEPRP | 0.0143
14 | RRIRHRPPRLPRPRPRPTWGPRP | 0.0618
15 | RRIRHRPPRLPRPRPRPTWKPRP | -0.011
16 | RRIRHRPPRLPRPRPRPTYMPRP | -0.435
17 | RRIRHRPPRLPRPRPRPVAHPRP | -0.00816
18 | RRIRHRPPRLPRPRPRPVCNPRP | -0.761
19 | RRIRHRPPRLPRPRPRPVEFPRP | -0.178
20 | RRIRHRPPRLPRPRPRPVEMPRP | -0.0679
21 | RRIRHRPPRLPRPRPRPVFGPRP | 0.0859
22 | RRIRHRPPRLPRPRPRPVFQPRP | -0.0932
23 | RRIRHRPPRLPRPRPRPVGYPRP | 0.00996
24 | RRIRHRPPRLPRPRPRPVHSPRP | 0.0246
25 | RRIRHRPPRLPRPRPRPVIFPRP | -0.395

Row | Sequence | shrunken log2 fold change
26 | RRIRHRPPRLPRPRPRPVKQPRP | -0.0982
27 | RRIRHRPPRLPRPRPRPVKRPRP | -0.226
28 | RRIRHRPPRLPRPRPRPVKYPRP | -0.0563
29 | RRIRHRPPRLPRPRPRPVLGPRP | 0.463
30 | RRIRHRPPRLPRPRPRPVLSPRP | -0.386
31 | RRIRHRPPRLPRPRPRPVLTPRP | -0.107
32 | RRIRHRPPRLPRPRPRPVMWPRP | 0.21
33 | RRIRHRPPRLPRPRPRPVPFPRP | -0.136
34 | RRIRHRPPRLPRPRPRPVPIPRP | 0.0935
35 | RRIRHRPPRLPRPRPRPVPNPRP | -8.36e-05
36 | RRIRHRPPRLPRPRPRPVRPPRP | 0.365
37 | RRIRHRPPRLPRPRPRPVSYPRP | -0.00133
38 | RRIRHRPPRLPRPRPRPVTKPRP | -0.055
39 | RRIRHRPPRLPRPRPRPVVDPRP | -0.109
40 | RRIRHRPPRLPRPRPRPVVGPRP | 0.0224
41 | RRIRHRPPRLPRPRPRPVVSPRP | -0.137
42 | RRIRHRPPRLPRPRPRPVWMPRP | -0.243
43 | RRIRHRPPRLPRPRPRPVYDPRP | -0.202
44 | RRIRHRPPRLPRPRPRPVYGPRP | -0.528
45 | RRIRHRPPRLPRPRPRPWADPRP | -0.36
46 | RRIRHRPPRLPRPRPRPWCHPRP | -0.00107
47 | RRIRHRPPRLPRPRPRPWFPPRP | -0.379
48 | RRIRHRPPRLPRPRPRPWHAPRP | -0.0793
49 | RRIRHRPPRLPRPRPRPWICPRP | -0.0191
50 | RRIRHRPPRLPRPRPRPWIIPRP | 0.00956

Row | Sequence | shrunken log2 fold change
51 | RRIRHRPPRLPRPRPRPWITPRP | -0.118
52 | RRIRHRPPRLPRPRPRPWKKPRP | -0.0699
53 | RRIRHRPPRLPRPRPRPWLGPRP | -0.0973
54 | RRIRHRPPRLPRPRPRPWLYPRP | -0.217
55 | RRIRHRPPRLPRPRPRPWNAPRP | -0.0678
56 | RRIRHRPPRLPRPRPRPWPAPRP | 0.292
57 | RRIRHRPPRLPRPRPRPWRTPRP | -0.229
58 | RRIRHRPPRLPRPRPRPWSVPRP | -0.125
59 | RRIRHRPPRLPRPRPRPWSWPRP | -0.304
60 | RRIRHRPPRLPRPRPRPWVVPRP | -0.48
61 | RRIRHRPPRLPRPRPRPWYLPRP | -0.748
62 | RRIRHRPPRLPRPRPRPYAIPRP | -0.149
63 | RRIRHRPPRLPRPRPRPYAMPRP | -0.416
64 | RRIRHRPPRLPRPRPRPYAQPRP | -0.279
65 | RRIRHRPPRLPRPRPRPYDWPRP | -0.0123
66 | RRIRHRPPRLPRPRPRPYEMPRP | -0.383
67 | RRIRHRPPRLPRPRPRPYFDPRP | -0.422
68 | RRIRHRPPRLPRPRPRPYFQPRP | -0.935
69 | RRIRHRPPRLPRPRPRPYGDPRP | -0.808
70 | RRIRHRPPRLPRPRPRPYHEPRP | -0.0135
71 | RRIRHRPPRLPRPRPRPYHRPRP | -0.00968
72 | RRIRHRPPRLPRPRPRPYISPRP | -0.0543
73 | RRIRHRPPRLPRPRPRPYIYPRP | -0.347
74 | RRIRHRPPRLPRPRPRPYLAPRP | -0.00514
75 | RRIRHRPPRLPRPRPRPYNVPRP | -0.0512

Row | Sequence | shrunken log2 fold change
76 | RRIRHRPPRLPRPRPRPYNWPRP | -0.928
77 | RRIRHRPPRLPRPRPRPYPKPRP | -0.193
78 | RRIRHRPPRLPRPRPRPYRRPRP | -0.142
79 | RRIRHRPPRLPRPRPRPYRVPRP | -0.0718
80 | RRIRHRPPRLPRPRPRPYSLPRP | -0.319
81 | RRIRHRPPRLPRPRPRPYTGPRP | -0.304
82 | RRIRHRPPRLPRPRPRPYVMPRP | 0.0288
83 | RRIRHRPPRLPRPRPRPYVVPRP | 0.0242
84 | RRIRHRPPRLPRPRPRPYYFPRP | -0.178
85 | RRIRIRPPRLPRPRPRPACCPRP | -0.086
86 | RRIRIRPPRLPRPRPRPACHPRP | -0.12
87 | RRIRIRPPRLPRPRPRPADPPRP | -0.071
88 | RRIRIRPPRLPRPRPRPADTPRP | -0.347
89 | RRIRIRPPRLPRPRPRPAEEPRP | -0.084
90 | RRIRIRPPRLPRPRPRPAEGPRP | -0.122
91 | RRIRIRPPRLPRPRPRPAEIPRP | -0.484
92 | RRIRIRPPRLPRPRPRPAGAPRP | 0.359
93 | RRIRIRPPRLPRPRPRPAGIPRP | -0.437
94 | RRIRIRPPRLPRPRPRPAGRPRP | 0.132
95 | RRIRIRPPRLPRPRPRPAHMPRP | -0.303
96 | RRIRIRPPRLPRPRPRPAHWPRP | 0.396
97 | RRIRIRPPRLPRPRPRPAIRPRP | -0.161
98 | RRIRIRPPRLPRPRPRPAKFPRP | -0.158
99 | RRIRIRPPRLPRPRPRPALVPRP | 0.228
100 | RRIRIRPPRLPRPRPRPAMLPRP | -0.22

Row | Sequence | shrunken log2 fold change
101 | RRIRIRPPRLPRPRPRPAMVPRP | -0.547
102 | RRIRIRPPRLPRPRPRPAPAPRP | 0.31
103 | RRIRIRPPRLPRPRPRPAPTPRP | 0.219
104 | RRIRIRPPRLPRPRPRPAQCPRP | 0.211
105 | RRIRIRPPRLPRPRPRPAQKPRP | -0.00244
106 | RRIRIRPPRLPRPRPRPAQYPRP | -0.13
107 | RRIRIRPPRLPRPRPRPARDPRP | -0.169
108 | RRIRIRPPRLPRPRPRPARLPRP | -0.0547
109 | RRIRIRPPRLPRPRPRPATAPRP | 0.0897
110 | RRIRIRPPRLPRPRPRPATCPRP | -0.349
111 | RRIRIRPPRLPRPRPRPATEPRP | 0.421
112 | RRIRIRPPRLPRPRPRPAVDPRP | -0.0902
113 | RRIRIRPPRLPRPRPRPAVHPRP | -0.145
114 | RRIRIRPPRLPRPRPRPAWGPRP | 0.0665
115 | RRIRIRPPRLPRPRPRPAWLPRP | 0.272
116 | RRIRIRPPRLPRPRPRPAYKPRP | -1.89
117 | RRIRIRPPRLPRPRPRPAYSPRP | -0.534
118 | RRIRIRPPRLPRPRPRPCCAPRP | -0.172
119 | RRIRIRPPRLPRPRPRPCCQPRP | -0.0291
120 | RRIRIRPPRLPRPRPRPCCSPRP | -1.1
121 | RRIRIRPPRLPRPRPRPCGVPRP | -0.153
122 | RRIRIRPPRLPRPRPRPCHDPRP | -0.223
123 | RRIRIRPPRLPRPRPRPCIEPRP | -0.112
124 | RRIRIRPPRLPRPRPRPCKAPRP | -0.181
125 | RRIRIRPPRLPRPRPRPCKTPRP | -0.168

Row | Sequence | shrunken log2 fold change
126 | RRIRIRPPRLPRPRPRPCMAPRP | -0.335
127 | RRIRIRPPRLPRPRPRPCNNPRP | -0.457
128 | RRIRIRPPRLPRPRPRPCNRPRP | -0.425
129 | RRIRIRPPRLPRPRPRPCNYPRP | -0.103
130 | RRIRIRPPRLPRPRPRPCPNPRP | -0.159
131 | RRIRIRPPRLPRPRPRPCPRPRP | -0.185
132 | RRIRIRPPRLPRPRPRPCPSPRP | -0.186
133 | RRIRIRPPRLPRPRPRPCQLPRP | -0.812
134 | RRIRIRPPRLPRPRPRPCRRPRP | -0.23
135 | RRIRIRPPRLPRPRPRPCSCPRP | -0.446
136 | RRIRIRPPRLPRPRPRPCSLPRP | -0.172
137 | RRIRIRPPRLPRPRPRPCSYPRP | -0.176
138 | RRIRIRPPRLPRPRPRPCVIPRP | -0.0683
139 | RRIRIRPPRLPRPRPRPCVRPRP | -0.208
140 | RRIRIRPPRLPRPRPRPCWAPRP | -0.283
141 | RRIRIRPPRLPRPRPRPCWKPRP | 0.00408
142 | RRIRIRPPRLPRPRPRPCYAPRP | -0.68
143 | RRIRIRPPRLPRPRPRPCYMPRP | -0.49
144 | RRIRIRPPRLPRPRPRPCYWPRP | -0.131
145 | RRIRIRPPRLPRPRPRPCYYPRP | -0.272
146 | RRIRIRPPRLPRPRPRPDAAPRP | 0.432
147 | RRIRIRPPRLPRPRPRPDAEPRP | 0.874
148 | RRIRIRPPRLPRPRPRPDAPPRP | 0.14
149 | RRIRIRPPRLPRPRPRPDCCPRP | 0.000204
150 | RRIRIRPPRLPRPRPRPDCDPRP | -0.242
